Measured values published in patent publication US20190106487A1 (Sanofi, published 2019).

T1: human IL-1RAcP on 293T/17-FR cells (human, UniProt Q9NPH3 21-570)
T1 sequence (looked up): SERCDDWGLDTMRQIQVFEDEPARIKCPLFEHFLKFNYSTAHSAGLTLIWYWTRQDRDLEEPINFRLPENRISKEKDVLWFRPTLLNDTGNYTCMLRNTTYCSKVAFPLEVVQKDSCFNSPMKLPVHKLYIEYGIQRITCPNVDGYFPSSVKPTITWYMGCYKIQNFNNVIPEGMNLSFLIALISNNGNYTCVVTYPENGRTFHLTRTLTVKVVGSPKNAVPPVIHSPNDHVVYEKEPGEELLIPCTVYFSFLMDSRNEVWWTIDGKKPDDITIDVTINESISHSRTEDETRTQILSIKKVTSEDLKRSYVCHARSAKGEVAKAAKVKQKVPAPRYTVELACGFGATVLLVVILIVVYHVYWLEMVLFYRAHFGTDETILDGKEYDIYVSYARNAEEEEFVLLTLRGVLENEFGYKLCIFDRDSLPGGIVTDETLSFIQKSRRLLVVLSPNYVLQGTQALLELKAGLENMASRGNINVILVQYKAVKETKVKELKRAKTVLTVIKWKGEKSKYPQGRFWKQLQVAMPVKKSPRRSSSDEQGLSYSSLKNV

T2: rhIL-1RAcP/Fc Chimera (human, UniProt Q9NPH3 21-359)
T2 construct: also called P013_03; P013-03
T2 sequence (looked up): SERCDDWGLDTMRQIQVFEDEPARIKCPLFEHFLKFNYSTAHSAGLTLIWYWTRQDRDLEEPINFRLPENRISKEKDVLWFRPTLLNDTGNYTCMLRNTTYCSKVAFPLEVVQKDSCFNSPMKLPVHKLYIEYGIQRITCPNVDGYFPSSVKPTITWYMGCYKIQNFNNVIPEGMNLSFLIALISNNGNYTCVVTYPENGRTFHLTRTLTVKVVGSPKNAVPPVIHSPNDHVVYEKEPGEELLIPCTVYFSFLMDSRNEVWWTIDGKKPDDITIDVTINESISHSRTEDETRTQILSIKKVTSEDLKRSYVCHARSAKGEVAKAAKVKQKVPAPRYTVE


Legend:
[1] = target: T1, human IL-1RAcP on 293T/17-FR cells; assay: cell-based or functional assay
rhIL-1RAcP/Fc Chimera [2] = target: T2, rhIL-1RAcP/Fc Chimera; assay: ELISA, primary supernatant, coated hu-IL-1RAcP-Fc
Description: Microtiter plates were coated IL-1RACP and/or IL12Rβ1 protein (recombinant Fc chimeric conjugates of human IL-1RACP or IL12Rβ1). After a blocking process, specific antibodies from B-cell supernatants bind to the targets and are then detected by a POD-labeled anti-rabbit IgG antibody. The IL12Rβ1 binding was used as a counterscreen. IL-1RACP protein was tagged with a linker, huFc and His like the IL12Rβ1 protein. Antibodies which bind to the tag were positive in both assays, whereas antigen specific antibodies just bound to IL-1RACP and not to IL12Rβ1.
12.5 μL 0.5 μg/mL IL-1RACP protein in PBS was transferred to a microtiter plate, incubated and washed 3× with Wash Buffer. 90 μL Block Buffer was added to each well, incubated and washed. 12.5 μl Standard Antibody (rabbit mAb against IL-1RAcP, anti IL12Rbeta1 antibody: IL-12Rbeta1 antibody; GeneTex; Cat. No. GTX103917) or sample diluted in ELISA buffer was added, incubated and washed. 12.5 μl 1:5000 POD-Antibody (Anti-rabbit IgG, peroxidase-linked species-specific Fab2 fragment (from donkey) (ECL); assay dilution: 1:5000) in Elisa Buffer was added, incubated and washed. 15 μl TMB was added and 15 μl HCl was added after sufficient development. Absorbance (Optical Density O.D.) was read at 450 nm/620 nm.

rhIL-1RAcP/Fc Chimera [3] = target: T2, rhIL-1RAcP/Fc Chimera; assay: ELISA, recombinant purified mAb

| Binder | functional reporter gene assay (% inhibition), 0.04 µg/mL mAb [1] [%] | functional reporter gene assay (% inhibition), 0.2 µg/mL mAb [1] [%] | functional reporter gene assay (% inhibition), 1 µg/mL mAb [1] [%] | functional reporter gene assay (% inhibition), 5 µg/mL mAb [1] [%] | primary supernatant functional assay (% inh.), NF-kB luciferase reporter [1] [%] | hu-IL1RaP ELISA (OD) (rhIL-1RAcP/Fc Chimera [2]) | EC50 (rhIL-1RAcP/Fc Chimera [3]) [µg/mL] |
| --- | --- | --- | --- | --- | --- | --- | --- |
| P013.S.02.B.B01 (antibody, V domains shown, rabbit monoclonal antibody; also called P013.A.00088.A11) VH: QSLEESGGRLVTPGTPLTLTCTVSGFSLSGYAMSWVRQAPGKGLEWIGIIYAGSGGTYYASWVKGRFTISKTSTTVDLKITSLTTEDTATYFCARAVPDDSAGKKLWGQGTLVTVSS VL: DIVMTQTPASVEAAVGGTITINCQASENIYSSLAWYQQKPGQPPKLLIYDASTLASGVSSRFKGSGSGTQFTLTISGVQSDDAATYYCQSYYCSVSSSCGYGFGGGTEVVVK | 24 | 39 | 75 | 94 | 95 | 3.6 |  |
| P013.S.01.B.D02 (antibody, V domains shown, rabbit monoclonal antibody; also called P013.A.00022.E06) VH: LEQSGGGAEGGLVKPGGSLELCCKASGFSLTTNYWICWVRQAPGKGLEWIGCIYANSVGSTYYASWVNGRFTLSRDIDQSTGCLQLNSLTAADTAMYYCARVDPGYSFDAFDPWGPGTLVTVSS VL: ALVMTQTPSPVSAAVGGTVTINCQASEDIYSNLAWFQQKPGQPPKLLIYRASTLASGVPSRFSGSGSGTEFTLTISALQSDDAATYYCLGVRTYFNTLNNSFGGGTEVVVK | 44 | 68 | 88 | 92 | 99 | 4 |  |
| P013.S.01.B.D05 (antibody, V domains shown, rabbit monoclonal antibody; also called P013.A.00085.G03) VH: EQSGGGAEGGLVKPGGSLELYCKASGFSLSSDAWICWVRQAPGKGLEWIGCIYAGSASNTYYATWVNGRFTLSRDIAQSTGCLQLNSLTAADTAMYYCARDRGYDDYGDITRLDLWGQGTLVTVSS VL: ALVLTQTPSPVSAAVGGTVTINCQASEDIYSNLAWFQQKPGQPPKLLIYRASTLASGVPSRFSGSGSGTEFTLTISGLQSDDAATYYCLGVYTYLSDLFFVFGGGTEVVVK | 26 | 66 | 77 | 62 | 93 | 3.4 |  |
| P013.S.02.B.G04 (antibody, V domains shown, rabbit monoclonal antibody; also called P013.A.00015.A11) VH: QSLEESGGRLVTPGTPLTLTCTVSGFSLSRCAMIWVRQAPGKGLEWIGFIGRGGSTWYASWVNGRFTISKTSTTVDLKITSPTTEDTATYFCARDGDYSDYYTFDLWGQGTLVTVSS VL: DVVMTQTPASVSERVGGTVTIKCQASQSIGSNLAWYQQKPGQPPKLLIYGASNLESGVPSRFSGSGSGTEFTLSISGVQSADAATYYCQCSGYDTTGVFPFGGGSEVVVK | -1 | 0 | 4 | -18 | 27 | 2.9 |  |
| P013.S.01.B.F03 (antibody, V domains shown, rabbit monoclonal antibody; also called P013.A.00025.F02) VH: LEQSGGGAEGGLVKPGGSLELCCKASGFSLGSSYWICWVRQAPGKGLEWIGCIYAGSSGITYYASWVSGRFTLSRDIDQSTGCLQLNSLTAADTAMYYCARDIYASTSGYDLWGQGTLVTVSS VL: ALVMTQTPSPVSAAVGGTVTINCQASEDIYSNLAWFQQKPGQPPKLLIYQASTLASGVPSRFSGSGSGTEFTLTISGLQSDDAAAYYCLGVCTYIGADNTLYNTFGGGTEVVVK | 26 | 59 | 87 | 94 | 102 | 3.4 | 0.44 |
| P013.S.01.B.G02 (antibody, V domains shown, rabbit monoclonal antibody; also called P013.A.00085.B11) VH: QSVEESGGRLVTPGTPLTLTCTVSGFSLSSYYMSWVRQAPGKGLEWIGYIYAAGPITYYATWAKGRFTISKTSTTVDLKITSPTTEDTATYFCVRDGSGSGTYGYNGMDLWGPGTLVTVSS VL: AYDMTQTPASVEAAVGGTVNIKCQASQSISNWLAWYQQKPGQRPKLLIYRASTLASGVSSRFKGSGSGTQFTLTISGVESADAATYYCQQGASTTDVDNVFGGGTEVVVK | 43 | 52 | 41 | 72 | 71 | 3.7 | 0.049 |
| P013.S.01.B.H03 (antibody, V domains shown, rabbit monoclonal antibody; also called P013.A.00045.A02) VH: QSVEESGGRLVTPGTPLTLTCTVSGFSLSSYYMSWVRQAPGKGLEWIGYIYAAGPITYYATWAKGRFTISKTSTTVDLKITSPTTEDTATYFCVRDGSGSGTYGYNGMDLWGPGTLVTVSS VL: AYDMTQTPASVEAAVGGTVNIKCQASQSISNWLAWYQQKPGQPPKLLIYRASTLASGVSSRFKGSGSGTQFTLTISGVESADAATYYCQQGASTTDVDNVFGGGTEVVVK | 28 | 49 | 59 | 60 | 43 | 3.5 | 0.104 |
| P013.S.02.B.C05 (antibody, V domains shown, rabbit monoclonal antibody; also called P013.A.00085.F10) VH: QSLEESGGRLVTPGTPLTLSCTASGFSLSTYYMSWVRQAPGKGLEWIGYMHVGGFPVYASWAKGRFTISKTSTTVDLKITSPTIEDTATYFCARDFGPPNWTLDLWGQGTLVTVSS VL: DVVMTQTPASVEAAVGGTVTIKCQASQSISSYCSWYQQKPGQPPKLLIYRASTLESGVPSRFKGSGSGTEFTLTISDLESADAATYYCQSSYYDLLGNGFGGGTEVVVK | 7 | 26 | 35 | 52 | 66 | 3.2 |  |
| P013.S.01.B.F02 (antibody, V domains shown, rabbit monoclonal antibody; also called P013.A.00043.D08) VH: QEQLVESGGGLVQPEGSLTLTCTASGFSFSSNYWMCWVRQAPGKGLEWIACIYTGGSGVTYYASWAKGRFTLSKTSSTTVTLQVTSLTAADTATYFCARDLVVVTSFNLWGQGTLVTVSS VL: ALMMTQTPSPVSAAVGGTVTINCQASEDIYSNLAWYQQKPGQPPKLLIYSASTLASGVPSRFSGSGSGTEFTLTISGVQSDDAATYYCLGVCTDISVDDVYNSFGGGTEVVVK | 45 | 59 | 80 | 93 | 76 | 3.4 |  |
